The values that follow come from the RNAGym collection of RNA variant scans (doi:10.1073/pnas.2313332121).

Variants at the floor of the assay were thinned out.

The labels stand for the following.
B1: TPR 5TU (parent)
chain: GGAUCUUCUCGAUCUAACAAAAAAGACAAAUCUGCCACAAAGCUUGAGAGCAUCUUCGGAUGCAGAGGCGGCAGCCUUCGGUGGCGCGAUAGCGCCAACGUUCUCAACUAUGACACGCAAAACGCGUGCUCCGUUGAAUGGAGUUUAUCAUG

The data set covers variants of B1. Description: polymerase ribozyme fitness, log enrichment relative to wild type (log ratio); higher = more active; in vitro selection for triplet polymerase activity. A digest of the protocol: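 To select mutant libraries of each subunit of a heterodimeric triplet polymerase ribozyme, built by PCR and transcribed, each was annealed with a biotinylated primer, partner subunit and triplets, then incubated frozen at −7 °C. Extended constructs were gel-excised, captured on streptavidin beads and amplified by RT-PCR, in one round carried out in triplicate. Illumina sequencing of input and output libraries kept genotypes with ≥10 input reads and ≥1 read per output. Fitness is the base-2 logarithm of genotype enrichment relative to wild-type enrichment, from inverse-variance-weighted replicate averages.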
As to C35U A142G, the “polymerase ribozyme fitness (log ratio)” value is -1.79. For G34U A37G G50U A89C G92A A138U the value was ≤ -4.2; for C32G G46A A52G U53A A60U C87A A89U A142U, ≤ -4.2. The value for C35A U45A U101A was -4.13; that for U31G G94U A119U was -0.547; that for C32G G59A G83A A98C A110G was -4.09. For C32U U55A the value was -1.62. Turning to C32U U55G, the “polymerase ribozyme fitness (log ratio)” value is -1.52.

For the variant U33G G50U U90G C96G, the “polymerase ribozyme fitness (log ratio)” value was -3.98. Turning to C32A C85G, the “polymerase ribozyme fitness (log ratio)” value is ≤ -4.2. The value for C35A A91G C105U was -4.17; that for C32U U77G C103G A138U was ≤ -4.2. For U33G A49U A91G G152A the value was ≤ -4.2. For C32A G67A G83A the value was ≤ -4.2; for C35G U55A G58A G86U A147U, -4.06; for C32U U82C, -1.74. G34C G74A U109A C123U C149U: the “polymerase ribozyme fitness (log ratio)” value is ≤ -4.2.

On to C35G C75U A91U U148C A150G, for which the “polymerase ribozyme fitness (log ratio)” value was ≤ -4.2. The value for U33G C43U A49C U77G A91U U101A C105G was ≤ -4.2; that for C35A C54G G83A C125A was ≤ -4.2.

Consider C36A C96A, for which the “polymerase ribozyme fitness (log ratio)” value is ≤ -4.2. For G34C G58A G68C G84A U90G A120G C125G the value was ≤ -4.2; for C35U A37C U55A C95U, -1.32; for C32U A49C A52G G58U G62C C131G, ≤ -4.2.

Regarding C35U A39C U56C C63U A110C A115G A121G G126A, the “polymerase ribozyme fitness (log ratio)” value is ≤ -4.2.

For C35G G50C U56A A64U G133C U148G, the “polymerase ribozyme fitness (log ratio)” value was ≤ -4.2. For C35G A49U G124C the value was ≤ -4.2; for C35A A47U C57U U101A C114G C123U, ≤ -4.2; for U33G G94A C123G G136A, ≤ -4.2. Take C32A A37C C95U: the “polymerase ribozyme fitness (log ratio)” value was ≤ -4.2. For G34A A39U C96A U135C G140C the value was ≤ -4.2; for C32G C87A A115C, ≤ -4.2. The value for C32A C38U U55A G94A G126C was -3.92; that for C35G C79A G83A A121U was ≤ -4.2; that for C36A C85U A98G C125A was ≤ -4.2. The value for C32A C87A was ≤ -4.2; that for G34A U78G G86U A106G A115G A120G was ≤ -4.2. Regarding C35U G74C C99U, the “polymerase ribozyme fitness (log ratio)” value is -4.12. The value for C35U G58A C95U was -0.16. On to C35U G84U A89U A97G G143A, for which the “polymerase ribozyme fitness (log ratio)” value was -2.66. For C32G C76G G84C C118U C132G G133C the value was ≤ -4.2; for U31G G50U U56G, -1.97; for C35G U82A G94U G126A A138U, ≤ -4.2. For U33A C43A C76U G92A G117U the value was -3.86; for G34C C87U, -3.33.

G34U A106G: the “polymerase ribozyme fitness (log ratio)” value was -0.622. The value for C35G was -3.25; that for C35U was -0.0953. The value for C35A was -2.69; that for C35A G42A A91U was -3.84; that for G34A C85A G133A was ≤ -4.2.

As to U33C C51U G59C C63A A120C C125G U134G, the “polymerase ribozyme fitness (log ratio)” value was ≤ -4.2.

Consider C32A A40U G62U C85G U146A, for which the “polymerase ribozyme fitness (log ratio)” value is ≤ -4.2. The value for C32U A52C U55G C118U was ≤ -4.2; that for U33C C85U A119G was -3.71; that for C35A A41C C57U C85G was ≤ -4.2.

As for U33A U56A G94A, the “polymerase ribozyme fitness (log ratio)” value was ≤ -4.2. The value for C36A G84A was -3.37. For C35G U55A C85U, the “polymerase ribozyme fitness (log ratio)” value was ≤ -4.2. For U33G U53G C54U G58A C69U C85A C114U U151A the value was ≤ -4.2; for C36A C54G U61G C79A G80A U102C, ≤ -4.2; for C32U G94U C116G, -3.95. As for G34A A47U G50A C63U, the “polymerase ribozyme fitness (log ratio)” value was -2.2. The value for C35A U134C was -3.61; that for C35A A60U U77A U82A G83C A97U G126A was -3.93.

For G34U A60C G62A G70A G83C C95G U104C, the “polymerase ribozyme fitness (log ratio)” value was ≤ -4.2. The value for C35U A47U U148A A150U was ≤ -4.2; that for C36A G48A C93U A113U C118G U144G A150U was ≤ -4.2. For G34C G50U C54A G94U C99U the value was ≤ -4.2; for U33G U56A C69U C87G U101C, ≤ -4.2; for C36A C93G C125A, ≤ -4.2.

With C32U C87G A142U, the “polymerase ribozyme fitness (log ratio)” value is ≤ -4.2. The value for C32U U55A C63U C118A was -3.08. The value for C35U C72U was -0.649; that for C35G C87U was -4.18.

On to U33G G65A G70C C108U, for which the “polymerase ribozyme fitness (log ratio)” value was ≤ -4.2. The value for G34A C35A G83C A106U G133U A137G G141U was ≤ -4.2; that for C32U C96G was -1.58; that for C36G U130C was -3.89. The value for C36A G42C U55A A66C C69U C105G A122U G126A A142C was ≤ -4.2.

Turning to C32U U45A C54A G84A C85A G92A C93A, the “polymerase ribozyme fitness (log ratio)” value was ≤ -4.2.

Consider C35U U78A G128A, for which the “polymerase ribozyme fitness (log ratio)” value is ≤ -4.2. For G34C C51G C57U G83C the value was ≤ -4.2; for G34A G71C C105G G143U, ≤ -4.2.
